Fewer inactive variants are shown than the library holds.
B1: TPR 5TU (parent)
chain: GGAUCUUCUCGAUCUAACAAAAAAGACAAAUCUGCCACAAAGCUUGAGAGCAUCUUCGGAUGCAGAGGCGGCAGCCUUCGGUGGCGCGAUAGCGCCAACGUUCUCAACUAUGACACGCAAAACGCGUGCUCCGUUGAAUGGAGUUUAUCAUG

Variants of: B1
Experiment: polymerase ribozyme fitness, log enrichment relative to wild type (log ratio); higher = more active; in vitro selection for triplet polymerase activity
How it was run: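 Libraries of mutants in each subunit of a heterodimeric triplet polymerase ribozyme were generated by PCR and transcribed. In triplicate, each went through one in vitro selection round: annealing with biotinylated primer, partner subunit and triplets; frozen incubation at −7 °C; gel excision of extended constructs; streptavidin-bead capture; RT-PCR. Fitness, taken from Illumina sequencing of input and output libraries, is the logarithm of a genotype's enrichment over wild-type enrichment, averaged across replicates with inverse-variance weights. The logarithm is base 2, and genotypes needed ≥10 input reads and ≥1 read per output to be kept.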

Variant | polymerase ribozyme fitness (log ratio)
C18G G83A U145G U151G | ≤ -4.2
C18G U31C G59C G81A C116G A138G | -4.15
A17U U53C G92A C129G | ≤ -4.2
C18G G94A | -1.09
A17U G100A A120C A150U | ≤ -4.2
C18G A21G C93U C149A | ≤ -4.2
C18G A20C A52G A73U A120G | -3.02
A17G C57U A113C | -3.96
A17G C99U | -0.271
C18G A23U A39G U55G A73U A89G A97U | ≤ -4.2
C18G C38G G81C C93G | ≤ -4.2
C18A C38U C51U C96G C116G U148A | ≤ -4.2
C18G U56A A73U G83C | -3.86
A17U C38A U53A G81C C95U U104G | -4
A17G G25C G50A G86A C93G | ≤ -4.2
A17U G84A C123G | -0.525
C18A A29U G136A | ≤ -4.2
C18A G70A G84U U130G | ≤ -4.2
C18G U45A A121U | -2.73
A17G G84U G126A | -1.39
A17U A47C C51G U61A G83A | ≤ -4.2
A17U G92A | -2.84
C18G A26U A47U G67C C105G U146A C149G | ≤ -4.2
A17G G48C G94A C95U | -3.29

Variant | polymerase ribozyme fitness (log ratio)
A17G C76U | -0.119
A17G G42C C43A C85A G143U | ≤ -4.2
A17U G71A C87G G140U | ≤ -4.2
C18A A19C C35A | -2.88
C18A A52G C87A G92C C95A U104A | ≤ -4.2
A17U G58C C95U C99A | -1.96
C18U A20U C103A G124A | -3.82
C18G A37C C96G A106G | -1.07
A17U C95U C99A A107G G133U | ≤ -4.2
A17U G42A A91C A122U G136C | ≤ -4.2
A17U G100U U134A U145G | ≤ -4.2
C18G A49C G67U G84U A107U | ≤ -4.2
A17U C57G C69A | -2.58
C18G C76G C85A U145A | ≤ -4.2
C18G C85A U145G A147U | -0.193
A17G G50U A66G G92C C95U G141A | ≤ -4.2
C18A A20U G71C G92C G143U U144G | ≤ -4.2
A17U A24U A39G C63G | -4.15
C18G A23C A29G C51U C72G G81A G140U | ≤ -4.2
A17U C79U C85U A97U | ≤ -4.2
C18G A20C G34U U55G C118U C123U | -4.18
A17U A110U | ≤ -4.2
A17U C32G C57A U139A | ≤ -4.2
A17G G70A C75G C96U C99G | -4.15

Variant | polymerase ribozyme fitness (log ratio)
A17U G84U | -1.75
A17U C76U C96U | 0.123
A17G G48A | -1.03
C18G C27U A40U C51U A52C C57G G88U C105U | ≤ -4.2
A17G U33G C79G G84A U134G | ≤ -4.2
A17U A30G G42U G81C C85U A122U | ≤ -4.2
C18G G71C C76A G88A G94A A113G A119U C129U | ≤ -4.2
A17U U56C G74U C76U G84U C125G A138C | ≤ -4.2
A17G C95U G141A | 0.672
C18G U56A | -0.693
C18A A21G U33G C36A G84A G141C U144A C149U | ≤ -4.2
A17U G48C G50U C76A C93A | ≤ -4.2
C18G G34U C57U C96U A147U | -2.53
A17U C36A C54U G74C A120U U144A | ≤ -4.2
C18G G42A U45A G58U A122C A142G | ≤ -4.2
A17G C72U G88U U102C C105G | ≤ -4.2
A17U C87U C125U | -1.39
A17U G94C C132U | -1.54
C18U A21C U55A | -0.649
C18G U78A G83A C118U | ≤ -4.2
A17G G58A C93U U101G U139A | ≤ -4.2
A17U C129G | -2.62
C18U A30U G65U G84U C105U | ≤ -4.2
C18U A37C G74C G81C | ≤ -4.2

Variant | polymerase ribozyme fitness (log ratio)
A17U A73U C93U A120G | -1.86
C18G C85G | -2.28
C18G C85A | -1.49
A17U A41U G86U A113C | ≤ -4.2
C18G A37C C93A A115G | -4.01
C18G A24U U33A G124A U135A | ≤ -4.2
C18G A19U G83U C95U C118U U144A | -3.01
C18G G42A C54U G94A | ≤ -4.2
C18G C57A C93U U135C U145G | -3.11
C18U A22G A49C G86A C131G | -4.14
A17G G86A | -0.889
A17U C36G U61A C76G C103U A119U G141C | ≤ -4.2
A17U A39G G50C A52C C96U C118U | ≤ -4.2
A17U A30C C38U U53G G58U C99U C132U | ≤ -4.2
A17G G86U A97U | -2.08
A17U C87A A98G C132U G136A | ≤ -4.2
C18G A52C C93G | ≤ -4.2
A17U C85G | -2.57
C18G U45C C96U C116A U130C | ≤ -4.2
A17U A29C C43G G86A U135C | -4.06
A17U A22C A23G G25A G50C U55A C75A G80A C87U U90C C103A | ≤ -4.2
C18G C93U A98G A120C G141U | 0.17
A17U U33G G34C A47G | ≤ -4.2
A17G G59U G80A C85A | -0.447

Variant | polymerase ribozyme fitness (log ratio)
A17U C87U C96U U104C A107U G141U | ≤ -4.2
A17U A37G U82A U144A | -2.56
A17G G100U | -4.01
C18U A23U A91U C95G U104C C118A A147U | ≤ -4.2
C18G C72U G86U G88C A150G | ≤ -4.2
A17G U53A | -0.401
C18G A24G G50U U55A A106C C125A | ≤ -4.2
C18A A19G C57A C87U C129A U135G | ≤ -4.2
A17G C96A A97G U101C U148C | -3.67
A17U A26C G62A G86U C99U U134C A137U G140A A147U | ≤ -4.2
A17G U56A G62C G152A | -3.06
A17G G58A G59C C69U C95U U104A | -3.74
C18G A20G G25C U33G G68U C96U A98G | ≤ -4.2
A17U C18A C35U C36G C105A | ≤ -4.2
C18G C27U A37G A47C U55A G65U C85U | -4.19
C18U A20U G59A G94A C116G A142G A150G | ≤ -4.2
A17U A21U C43U G71A C75U C93A C114U A120U U151G | ≤ -4.2
A17G C93G | -2.89
A17G C93U | -0.578
A17G C93A | -2.46
A17U A19C C38A G42C U56A U78G A113U C132G A142G U148A | ≤ -4.2
A17U A40C G58C C76U G84U U144G | -0.372
A17U U44A C54G U55G G62C C87A C99U A150G G152C | ≤ -4.2
A17U G83U | -1.65

Variant | polymerase ribozyme fitness (log ratio)
A17U G81A G84A | -0.321
C18G C57U | -0.371
A17U A26C C76A G86A C96A C105G A115G | ≤ -4.2
A17G G48U C87U A89U A119C | -2.96
C18A A30G C38U G48C G71A A89U C96U A97C | ≤ -4.2
A17U A30U G42A C95A A138G | ≤ -4.2
A17U G58A C76U C87A A120G G133U | ≤ -4.2
A17U A22U U90G C125A U139C | ≤ -4.2
A17U A24C A26G C57U G86A | ≤ -4.2
A17U A20C C57U A60U C93A G94U A122C G126U | ≤ -4.2
A17U C18G A41G A89C G126A C132U | -3.84
A17G C96U | 0.456
A17G C96G | -1.29
A17U A20U G50C | ≤ -4.2
A17G C96A A119U | -0.596
C18U A21C G141A | 0.0565
C18G G84U | -1.93
A17U G65C A89U C93G G112C | ≤ -4.2
A17U G124U | -0.693
C18G C79G | -3.9
C18G C57A U134G U145A | -3.18
C18G C114G A122G | -3.64
C18G A24U C76A C95U G141A | -3.98
A17U G58U G74C G86A | ≤ -4.2

Variant | polymerase ribozyme fitness (log ratio)
A17G G143U | -2.24
C18U A39G U53C C57G C75A U139G A150C | ≤ -4.2
C18G C36G U78A C85A | ≤ -4.2
A17G G62U G68U C96A C105G U134G | ≤ -4.2
A17U A98G | -0.0344
A17G U53A C75G A91G A113G G143A | ≤ -4.2
C18U A40C A52G G86U U90C U135G | ≤ -4.2
C18A A22C A23U A37C C72U G88A C125U U146G | ≤ -4.2
C18U A37U U144A | -1.92
C18G A21G A24U A41C U53G C54G G84U G92U C93G G143C | ≤ -4.2
C18A U56A G58C G94A | -0.964
C18G G80C | ≤ -4.2
A17U A52C A64C G133A A138C | ≤ -4.2
A17U C95U | -0.895
A17U G42U C99A C105U A120U | ≤ -4.2
C18G A19U G42C G50C U90G G92U | ≤ -4.2
A17G G84A C93A A98G C129G | ≤ -4.2
A17U A21G A22C C38U A66U U82C G100A C125U | ≤ -4.2
A17G G70A C85G | ≤ -4.2
A17U C18U A20G C93U A115G | -4.19
A17G G141C | 0.607
A17G C75U C95U | 0.0451
A17G C72U A147C | -0.924

— the RNAGym collection of RNA variant scans (doi:10.1073/pnas.2313332121)
